Publication PMC3078936 (PLoS ONE, 2011)

Biological target: T1, DYNLL1 (Homo sapiens, UniProt P63167)
T1 construct: 6xHis (N); made in house; host or cells: E. coli BL21(DE3)Star
Test: Isothermal titration calorimetry of peptide/protein binding to DYNLL1
Conditions: ITC binding enthalpy, PBS + 3 mM 2-mercaptoethanol pH 7.4, 299 K
Protocol: Binding parameters of the in vitro evolved Ac-[…] and naturally evolved Ac-DKSTQTD consensus peptides were determined by isothermal titration calorimetry (ITC). Synthetic peptides were used and N-terminal acetylation was applied to better mimic a non-terminal peptide motif by avoiding the positively charged N-terminus. In order to elucidate the particular contribution of Val-5 to the binding affinity, several control peptides were produced. The in vitro evolved Val-5 was replaced with a glycine (Gly-5) to assess side chain function. In a further truncated variant the entire amino acid residue was replaced with an acetate group (Ac-5) to assess the function of the amide group at position −5. The same variations of Val-5, Gly-5 or Ac-5 were also introduced in the framework of the naturally evolved consensus peptide. DYNNL1 binding of all six variants was analyzed by ITC. In all measurements the stoichiometry of binding was 1∶1 (2 peptides binding to one homodimer DYNNL1). […]
All peptides and DYNLL1 were dialyzed overnight in PBS buffer supplemented with 3 mM 2-mercaptoethanol (pH 7.4). […] For each experiment the thermodynamic parameters were determined at 299 K. We used a VP-ITC instrument from Microcal and the data were fitted by the software package Origin 5.0 (OriginLab) using the simple A + B to AB binding model. […]

T1 sequence (P63167 whole entry): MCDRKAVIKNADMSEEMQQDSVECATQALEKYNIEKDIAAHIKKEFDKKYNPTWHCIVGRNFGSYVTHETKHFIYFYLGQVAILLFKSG

B1: EML3 (8-94): recombinant fragment of EML3 (residues 8–94) containing a coiled coil domain and the in vitro evolved consensus motif (protein, UniProt Q32P44 8-94, looked up, fragment)
chain: GDGPAREALQSLSQRLRVQEQEMELVKAALAEALRLLRLQVPPSSLQGSGTPAPPGDSLAAPPGLPPTCTPSLVSRGTQTETEVELK
**Q.** B1 was tested. Which ΔH did it give?
**A.** Its ΔH is -7.74 kcal/mol.
